From article PMC7186176, “Structural basis of cell-surface signaling by a conserved sigma regulator in Gram-negative bacteria” (The Journal of Biological Chemistry, 2020)

B1: PupR CCSSD (PupR residues 110–324, MBP cleaved) (domain or fragment, Pseudomonas capeferrum)
chain: GAMGQDWRADYHSRIGEQRRLTLADGTQVQLNTDSALNVAFDQQARRLRLVRGEMLITRPALADSRPLWVDTEHGRLESTLAQFNVRLHGQHTQATVYQGSVALQPALHAYPPILLGAGEQASFNQQGLLARQAVAAVAPAWSQGMLVAQGQPLAAFIEDLARYRRGHLACDPALAGLRVSGTFPLENTDKIIAAVAETLQLEVQHFTRYWVTLKPRMA
notes: 4-residue cloning artifact left after TEV cleavage; PupR, inner membrane sigma regulator of Pseudomonas capeferrum (formerly Pseudomonas putida WCS358), periplasmic CCSSD, residues 110-324; 219-residue product with the GAMG artifact; About 90% pure, some MBP contamination; also called native PupR CCSSD; not shown: MBP, N-terminal, cleaved
B2: MBP-tagged PupR CCSSD (PupR residues 110–324) (domain or fragment, Pseudomonas capeferrum, UniProt Q52209 110-324, looked up)
chain: QDWRADYHSRIGEQRRLTLADGTQVQLNTDSALNVAFDQQARRLRLVRGEMLITRPALADSRPLWVDTEHGRLESTLAQFNVRLHGQHTQATVYQGSVALQPALHAYPPILLGAGEQASFNQQGLLARQAVAAVAPAWSQGMLVAQGQPLAAFIEDLARYRRGHLACDPALAGLRVSGTFPLENTDKIIAAVAETLQLEVQHFTRYWVTLKPRMA
notes: PupR, inner membrane sigma regulator of Pseudomonas capeferrum (formerly Pseudomonas putida WCS358), periplasmic CCSSD, residues 110-324; also called complete CCSSD; C-terminal cell-surface signaling domain; source: E. coli BL21(DE3)pLysS, co-expressed with GST-PupB NTSD, clarified lysate (pull-down); not shown: MBP, N-terminal, kept
B3: PupB NTSD (purified) (domain or fragment, Pseudomonas capeferrum, UniProt P38047 49-128, looked up)
chain: AQADFDIPAGPLAPALAHFGQSAHILLSYPTALTEGRSTSGLAGRFDIDQGLAILLAGTGLEASRGANASYSLQASASTG
notes: PupB, outer membrane TonB-dependent transducer of Pseudomonas capeferrum (formerly Pseudomonas putida WCS358), N-terminal signaling domain; also called N-terminal signaling domain of PupB

Tests used:
Details in all cases: both partners purified
PupB NTSD (purified) [1] = molecular target: B3; assay: SEC-SAXS; inline Superdex 200 Increase 10/300; 25 mM HEPES pH 7.5, 400 mM LiCl, 10% glycerol; 800 μM complex (1:1 mix, 30 min at room temperature) or 400 μM PupR CCSSD alone injected; ambient temperature
PupB NTSD (purified) [2] = molecular target: B3; assay: ITC; MBP-tagged PupR CCSSD (220-235 μM) titrated into PupB NTSD (27.5-40 μM); 15 °C; 25 mM HEPES pH 7.5, 400 mM LiCl, 10% glycerol; global fit of three runs in SEDPHAT with a local incompetent fraction
PupB NTSD (purified) [3] = molecular target: B3; assay: as above; remark: listed apart in the source
[4] = molecular target: B2; assay: as above

Binder: B1
stoichiometry N (PupB NTSD (purified) [1]): 1

Binder: B2
stoichiometry N (PupB NTSD (purified) [2]): 1
dH (PupB NTSD (purified) [3]): -17.7 kcal/mol

Binder: B3
Kd [4]: 690 nM
